Where a chain is given by its changes, count along the chain named. Names and notes keep the numbering of the source. Values belong to the binder of their own block, whether it stands above or below them.
Tests used:
[1] = molecular target: T1, IL-18 receptor (IL-18Rα/IL-18Rβ) on cells (HEK-Blue IL18R reporter cells, NK-92, KG-1) (human) (UniProt Q13478); test: cell-based or functional assay
T1 sequence (looked up) 1: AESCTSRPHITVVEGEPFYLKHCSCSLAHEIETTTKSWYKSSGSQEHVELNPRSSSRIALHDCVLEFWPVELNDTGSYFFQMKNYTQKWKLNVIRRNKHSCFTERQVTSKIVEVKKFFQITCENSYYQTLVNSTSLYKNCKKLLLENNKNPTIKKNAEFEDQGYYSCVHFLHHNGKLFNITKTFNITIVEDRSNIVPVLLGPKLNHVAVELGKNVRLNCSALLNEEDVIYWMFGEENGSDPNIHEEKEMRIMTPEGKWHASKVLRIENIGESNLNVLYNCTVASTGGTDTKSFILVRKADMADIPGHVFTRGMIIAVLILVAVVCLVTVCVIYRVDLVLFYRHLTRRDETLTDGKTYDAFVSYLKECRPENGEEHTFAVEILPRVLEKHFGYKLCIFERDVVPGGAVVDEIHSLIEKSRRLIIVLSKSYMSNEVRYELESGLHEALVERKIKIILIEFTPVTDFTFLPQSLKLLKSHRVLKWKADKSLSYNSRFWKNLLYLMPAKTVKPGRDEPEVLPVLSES
T1 sequence (looked up) 2: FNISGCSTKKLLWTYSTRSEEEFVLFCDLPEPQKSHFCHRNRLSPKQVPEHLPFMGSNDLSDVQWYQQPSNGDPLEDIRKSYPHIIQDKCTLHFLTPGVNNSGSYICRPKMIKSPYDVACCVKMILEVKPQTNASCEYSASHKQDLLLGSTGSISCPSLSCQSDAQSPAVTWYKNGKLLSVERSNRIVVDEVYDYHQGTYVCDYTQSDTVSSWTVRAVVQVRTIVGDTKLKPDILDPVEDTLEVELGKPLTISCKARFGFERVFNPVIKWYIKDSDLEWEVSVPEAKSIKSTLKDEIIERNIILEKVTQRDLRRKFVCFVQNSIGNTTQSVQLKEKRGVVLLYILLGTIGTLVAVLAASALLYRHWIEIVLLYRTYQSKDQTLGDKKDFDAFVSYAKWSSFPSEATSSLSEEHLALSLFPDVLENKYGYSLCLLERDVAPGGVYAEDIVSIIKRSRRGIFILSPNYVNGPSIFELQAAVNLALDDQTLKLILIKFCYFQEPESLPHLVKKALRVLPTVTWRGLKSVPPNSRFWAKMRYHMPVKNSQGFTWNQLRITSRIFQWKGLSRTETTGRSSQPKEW

[2] = molecular target: T2, human IL-18BP-His (human), O95998; test: AlphaLISA of free IL-18BP; settings: remark: other sources report otherwise
T2 chain: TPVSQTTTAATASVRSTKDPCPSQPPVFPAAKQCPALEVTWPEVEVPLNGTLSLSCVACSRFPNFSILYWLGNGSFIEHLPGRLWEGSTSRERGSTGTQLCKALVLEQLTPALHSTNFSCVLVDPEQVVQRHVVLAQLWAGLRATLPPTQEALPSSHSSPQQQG

EC50, IFNγ secretion, NK92 cells [1]: 0.064 nM
B1: Composition F (Trastuzumab/Herceptin conjugated to IL-18 polypeptide of SEQ ID NO: 60) (protein, part only; not given: trastuzumab heavy and light chains, part only)
chain: YFGKLKSKLSVIRNLNDQVLFIDQGNRPLFEDMTDSDQRDNAPRTIFIISMYADSQPRGMAVTISVKCEKISTLSCENKIISFKEMNPPDNIKDTKSDIIFFQRSVPGHDNKMQFESSSYEGYFLACEKERDLFKLILKKEDELGDRSIMFTVQNED
modifications: chemical linker to the antibody; site not stated

Kd [2]: 969 nM
B2: IL-18 polypeptide of SEQ ID NO: 35 (Y01G, F02A, E06K, M51G, K53A, D54A, S55A, T63A), Q14116 37-193 (ligand)
chain: B1 chain with Y1G, F2A, Q38C, M51G, D54A, S55A, T63A

From patent US12383631
